18 sequences from the DeepSol protein solubility set can be followed below.

A short description of the data set: soluble on expression in E. coli; label from the status in PepcDB or PDB records.
On to “MGSDKIHHHHHHMKVYLVGGAVRDQLLGLPVKDRDWIVVGADPATLLSLGYQQVGKDFPVFLNPKTKEEYALARTERKSSAGYTGFICDFSPTITLEQDLIRRDLTINAMAQSEDGEIIDPYGGKQDLENRILRHISPAFSEDPLRVLRVARFAARYHSLGFKIASETLALMAELAQSGELQHLTAERIWLETEKALNEKNPEIYFETLHKTGALSVLFSEIDALYGVPNPVKHHPEVDSFIHTMLVLKQAVNLTENNPILNKSAVRFAAICHDLGKALTPQNILPHHYGHEQAGIKPTRSLCKRLKVPSYFQELAELTCEFHTHIHKAFELRAETVITLFNRFDVWRKPQRFQEFLQVCLADTRGRTGFETKDYPQIDYINQLLHAANEVDVQQVIADGFEKQAIKNELTKRRILAVKQTKTNYPTN”, for which the “soluble on expression in E. coli” value is “not soluble”.

Consider “MSLEELLERVFSFSDVDKLIDFISYELQKPVILESADFFLLAYNSYYINHFDSANQQTIFSKKCPVQIFERFLKDGIIEKLKTEPEPFRVNKIESIGLNQRVVVSAKHKGEVMGYIWIQELDQNLTDEELDFLYETSFHVGKIIYKTNKLKQEKEEKAEDLIKRAIYQQFTSEKELRREAERINTVLPSMFSVVILHAANGDGEAVEDLKENIRSYLNLRDKVSHVLTIESNIVIVVASFSQKSSVSSAASEFINKLLTHFHFQKIPTPIYIGIGNEYNHLLKLGKSYTEALEVIKAAEITGNQENIPYEYAKLGIYRYLESIEQKNEFLEYENKDLALLKAKDEESSTELLKTLEVYLLNNCKTKPAAEQLFIHQNTLNYRIKQITEMTSIDLSDFRTRCQLYLDLMLMKKKEGGSHHHHHH”, for which the “soluble on expression in E. coli” value is recorded as “soluble”.

On to “MGGSHHHHHHRSESTVTEELKEGIDAVYPSLVGTADSKAEGIKNYFKLSFTLPEEQKSRTVGSEAPLKDVAQALSSRARYELFTEKETANPAFNGEVIKRYKELMEHGEGIADILRSRLAKFLNTKDVGKRFAQGTEANRWVGGKLLNIVEQDGDTFKYNEQLLQTAVLAGLQWRLTATSNTAIKDAKDVAAITGIDQALLPEGLVEQFDTGMTLTEAVSSLAQKIESYWGLSRNPNAPLGYTKGIPTAMAAEILAAFVESTDVVENIVDMSEIDPDNKKTIGLYTITELDSFDPINSFPTAIEEAVLVNPTEKMFFGDDIPPVANTQLRNPAVRNTPEQKAALKAEQATEFYVHTPMVQFYETLGKDRILELMGAGTLNKELLNDNHAKSLEGKNRSVEDSYNQLFSVIEQVRAQSEDISTVPIHYAYNMTRVGRMQMLGKYNPQSAKLVREAILPTKATLDLSNQNNEDFSAFQLGLAQALDIKVHTMTREVMSDELTKLLEGNLKPAIDMMVEFNTTGSLPENAVDVLNTALGDRKSFVALMALMEYSRYLVAEDKSAFVTPLYVEADGVTNGPINAMMLMTGGLFTPDWIRNIAKGGLFIGSPNKTMNEHRSTADNNDLYQASTNALMESLGKLRSNYASNMPIQSQIDSLLSLMDLFLPDINLGENGALELKRGIAKNPLTITIYGSGARGIAGKLVSSVTDAIYERMSDVLKARAKDPNISAAMAMFGKQAASEAHAEELLARFLKDMETLTSTVPVKRKGVLELQSTGTGAKGKINPKTYTIKGEQLKALQENMLHFFVEPLRNGITQTVGESLVYSTEQLQKATQIQSVVLEDMFKQRVQEKLAEKAKDPTWKKGDFLTQKELNDIQASLNNLAPMIETGSQTFYIAGSENAEVANQVLATNLDDRMRVPMSIYAPAQAGVAGIPFMTIGTGDGMMMQTLSTMKGAPKNTLKIFDGMNIGLNDITDASRKANEAVYTSWQGNPIKNVYESYAKFMKNVDFSKLSPEALEAIGKSALEYDQRENATVDDIANAASLIERNLRNIALGVDIRHKVLDKVNLSIDQMAAVGAPYQNNGKIDLSNMTPEQQADELNKLFREELEARKQKVAKA”, for which the “soluble on expression in E. coli” value is “soluble”.

Take “MDSRSLSVHDGAMQTLTVPDSGLAPLLPGQRLARGVCRHLRSHDFVSVVELVPAPGLRVDVMALGPKGEIWVVECKSSRADYQSDRKWQGYLDWCDRFFFAVDEAFPVDLLPEGTGLMLADGYDAEILRIGPEGRLAPARRKAVIQGFARHAALRLQGLRDPGAFPG”: the “soluble on expression in E. coli” value was “not soluble”.

Consider “MKIDITDYNHADEILNPQLWKEIEETLLKMPLHVKASDQASKVGSLIFDPVGTNQYIKDELVPKHWKNNIPIPKRFDFLGTDIDFGKRDTLVEVQFSNYPFLLNNTVRSELFHKSNMDIDEEGMKVAIIITKGHMFPASNSSLYYEQAQNQLNSLAEYNVFDVPIRLVGLIEDFETDIDIVSTTYADKRYSRTITKRDTVKGKVIDTNTPNTRRRKRGTIVTY”, for which the “soluble on expression in E. coli” value is listed as “soluble”.

Consider “SSQQRPARKLPSLLLDPTEETVRRRCRDPINVEGLLPSKIRINLEDNVQYVSMRKALKVKRPRFDVSLVYLTRKFMDLVRSAPGGILDLNKVATKLGVRKRRVYDITNVLDGIDLVEKKSKNHIRWIGSDLSNFGAVPQQKKLQEELSDLSAMEDALDELIKDCAQQLFELTDDKENERLAYVTYQDIHSIQAFHEQIVIAVKAPAETRLDVPAPREDSITVHIRSTNGPIDVYLCEVEQGQTSNKRSEGVGTSSSESTHPEGPEEEENPQQSEELLEVSN”, for which the “soluble on expression in E. coli” value is “soluble”.

As for “AEIVEGRDYTVLSAPQPTEGDSEHIEVIEFFWYGCPHCSDLHPHLSRWLENKPADVAFRFVPAILRNNWVPGAKTFYAMESLGLTQTLHDKVYHAIHREKTDLSKEATLFDWIGKQGVDRDKFIGAYNSFTVQNQANRSAQMIRQYKLTGVPALVVDGRYLTSGKAGGTPQDTISVLNQLIEK”, the “soluble on expression in E. coli” value is “not soluble”.

As to “MTIGIIGSGALGSGIARILASKGISAIISNSRGPESLASLVRELGGSIKAGTAEEAARADIVFAAVRWVDAEKVLSSLPAWEGRIVIDATNPVEFIDPDSPDANDPTNPLAAYGIKAVDLHGKYSSEIFRQFVPGARVVKAFNHLDANVFSAPEVTGGKRVLFYSGDDAAAKTEVRKIIEDTGFVPVDLGTLDVGGPLASLPFGPLAAQNFIRVLEHHHHHH”, the “soluble on expression in E. coli” value is recorded as “soluble”.

“MAHHHHHHMRSISTGSGANLQKPSWIAQLCSDAQKSEKTISCDVKVYDELSWRRRRFSFDKELWDPARMSSIVRRRLCLGNEEAEYTVIGEAFAFADREDSPVVNEPQHSCKLLWDHNSSVEKLLIQISDHFPPLLWYAVKPTLESLKRIFSEFLDVDAEHMKKNLPYYESVQNAMETSTQERLGVTLSPTSVKDRFVADMRRRDPKDLELDYPCEYSVFLGTSPHFRLVEDRMMKSNPFVFGWPLLLSDGNEHLDGTPLRMAAFRTVYSKSLLMFHTRLDLQVDHRLASSEAGEETLLDVPIFCNINYPKNTRLCGGKPLVQRFNTVMGTTYPLDTPVDILAALAKEQCVKGPNELLEELRFLTAAAERAPDEERVFRISDDQLSANRIVGQLAYTIIYVALVNYDRFIKDVFDVYKTHRSDMVRVACARGASIVGRPDLIEQLISAEREGPCKNMLRGVVTTP”: the “soluble on expression in E. coli” value is “not soluble”.

Consider “MGSDKIHHHHHHMGSLAVIDAPGWYETIRMADGVTLIHEPWIKPFFRCNIWHVRGRDRDLLFDTGLGHFSLRTHVPLVTERKLTCVASHTHFDHIGCHHEFPDRGVHPAEAKILADPRNEWTVADRYATDDMFDGLPQGWESSRYRILPAPADRLLDHGDVVDLGDRAFEVIHTPGHSPGGIALYEKKTGILLSGDIIYDGPLIDDVYHSDIPDYMATLLAMRELDVSVVHGGHFPSFGKVRYRQLIDEYLAQKRRAGCHLRQRP”, for which the “soluble on expression in E. coli” value is recorded as “not soluble”.

On to “MGSDKIHHHHHHMKIGAVLTREQVISARYVHHGLLTPFPDPLVAAQRLAGVQAQILPAAGLALWNRVAGFSADQLEHLLYHERSLVRLWGQRGTLHLYAMTDWPLVYGMQAGQATYWEQEAQRDGWAVDEYEAFIARVGDLLYEHETLGRSDLRRLLPAIDQRHLSGWGGVFAILTRRGLACHAAPRGGEARMTHRLRWRPDLVWEPPDTDTANAEMLRRYLAVFGPVRLVDMTCWRGRTQAEMKRWLALIGEEVVRVSVDGQPAWWLQSYLDRLADLPTPADLPPHLLGRFDPLLLGTRDKSWLIDADVYNRVWRPAGHIEATMLVHGRIAGTWRYDWRGSSIVVTLRPFKPLPPSERIRIESLAAGVAEHFAAPLGDCRWEAVA”, for which the “soluble on expression in E. coli” value is on record as “not soluble”.

Consider “MSLSKQETEKVRVFALGGVGEIGKNMYGIEVDEDIIVIDAGLMFPDDDMLGVDIVIPDVSYLVENEERVRGIILTHGHEDHIGGLSYVLKKINVPVYATKLTLGLVEEKLKEAGIHRHAELRLIDSNSRIKLGNTPVSFFRVSHSIPDCVGVCVETSQGAIVHTGDFKFDQTPVDGKHADIGKMAAIGQKGVLCLMSDSTNAERPGTTKSEAEAGKGIKDVFARTKGRLIVTSFASNVHRIQQVIQAASATNRKLAVVGKSMVRVISIAGKLGYLKIPKDLLIDMDEVNKHKPEKVAILTTGSQGEPMSALTRMAKGAHRHITITPNDTVIIAATAIPGNETSVSAVIDQLYRIGAEVIYGSQAVHASGHGSQEELKLMLNLMRPKFFLPIHGEIRMQHAHQQLALQVGIKKERIYIVEKGEVIEFTKQQARRGPKVPSGHVLIDGLGVGDVGNIVLRDRRLLSKDGILVVVVTLNKKTNTIVSGPNIISRGFVYVRESEELLEKSNELVTSILQKCVTENVNEWSSLKSNIREGLSRYLFEKTKRRPMILPIIMEEGHHHHHH”, for which the “soluble on expression in E. coli” value is on record as “soluble”.

Consider “DIQMTQSPSSLSATLGGKVTITCKASQDINKYIAWYQHKPGKGPRLLIHYTSTLQPGNPSRFSGSGSGRDYSFSISNLEAEDIAIYYCLQYDNLQRTFGGGTKVEIKRADAAPTVSIFPPSSEQLTSGGASVVCFLNNFYPKDINVKWKIDGSERQNGVLNSWTDQDSKDSTYSMSSTLTLTKDEYERHNSYTCEATHKTSTSPIVKSFNRNE”, for which the “soluble on expression in E. coli” value was “soluble”.

With “MSIRSWPAAERPRERLLELGAASLSDAELLAIFLRTGVAGKSAVDLARHLLNQFDGLRSLLDADQPAFTAQLGLGPAKFAQLQAVMEMARRHMAESLRRDSALENPAQVRNYLKAQLRHEPHEVFACLFLDNKHRVMTFEILFRGTINASYVHPRQVVKRALAHNAASLILCHNHPSGITTPSRSDIDLTKRLKEALKLVDVHVLDHVIVGDGEPLSMVEKGLM”, the “soluble on expression in E. coli” value is on record as “not soluble”.

With “SAGSVADSDAVVKLDDGHLNNSLSSPVQADVYFPRLIVPFCGHIKGGMRPGKKVLVMGIVDLNPESFAISLTCGDSEDPPADVAIELKAVFTDRQLLRNSCISGERGEEQSAIPYFPFIPDQPFRVEILCEHPRFRVFVDGHQLFDFYHRIQTLSAIDTIKINGDLQITKLG”, the “soluble on expression in E. coli” value is listed as “soluble”.

For “MAARDPEATKARIFEAAVAEFARHGIAGARIDRIAAEARANKQLIYAYYGNKGELFASVLEKKMLDLAISVPVDPDDIEGWIDRLLDYHAAHPELLRLLFWEGMEYGTAELPHEAERQEHYARKVAAVRDGQERGVITDAIPAPDLLFLLVAMANWAVVVPQMKRILVGGGDAGTDGLRDSIKKAARRIVDR”, the “soluble on expression in E. coli” value is “not soluble”.

“MDCVVGRKNSAAVLLVLSERKTREEIILKLPDKTQESVIKAIDELERKYRRKFREKFKTITVDNGTEFLDYRGIEKSKTEPGKDRTKVYYAHPYSSWERGTNENINKLIRRFIPKGTDISKVSKAKIKSIERWINEYPRRMFGYRSAIEMAV”: the “soluble on expression in E. coli” value is “soluble”.

On to “MYFPIVALIGRYQDTGLDAPLTALAQMLTQAGRRVLVEAETARNAGVSGYPVADWDEIGRTATLAVVMGGDGTVLGAARHLAPYGVPLIGINHGRLGFITDIPLQDAHDALGRVLEGNYQAEDRMLLQGGVWRGEQQMYSASAVNDVVLNRAGRGGMIEVRVELDGAFMYTQRADGLIIATPTGSTAYSLSANGPILHPGMNAMVLVPVAPQTLSNRPIVIPDSGVLNMTLTAMGRVEIGASVHFDMQTWSDLQPGDRITVQRAPHIIRFVHPEGYSFFSTLRRKLHWNLMPQATDNLELEHHHHHH”, for which the “soluble on expression in E. coli” value is reported as “not soluble”.
